In PMC3545058:

How the values were obtained:
[1] = target: GST-EhGα1 (Entamoeba histolytica); assay: SPR
[2] = target: EhRGS-RhoGEF (Entamoeba histolytica); assay: SPR

Substance | Kd [1] | Kd [2]
EhRGS-RhoGEF (natural protein) | 5.7 µM | 
EhGα1(Q189L) (natural protein) |  | 110 µM
EhGα1 (natural protein) |  | 5.2 µM
EhRacC(Q65L) (from UniProt Q24816 1-194) (natural protein) |  | 34 µM
